Legend:
[1] = target: T1, Zip2(499-704);Spo16 (Saccharomyces cerevisiae;Saccharomyces …, UniProt P53061;P17122 499-704;1-198, |); assay: EMSA
T1 sequence 1: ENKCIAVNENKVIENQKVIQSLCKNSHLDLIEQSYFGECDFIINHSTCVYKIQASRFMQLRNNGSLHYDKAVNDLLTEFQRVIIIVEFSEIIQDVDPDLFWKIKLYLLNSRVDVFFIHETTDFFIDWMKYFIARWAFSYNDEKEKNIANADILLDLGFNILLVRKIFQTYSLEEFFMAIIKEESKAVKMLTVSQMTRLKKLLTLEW
T1 sequence 2: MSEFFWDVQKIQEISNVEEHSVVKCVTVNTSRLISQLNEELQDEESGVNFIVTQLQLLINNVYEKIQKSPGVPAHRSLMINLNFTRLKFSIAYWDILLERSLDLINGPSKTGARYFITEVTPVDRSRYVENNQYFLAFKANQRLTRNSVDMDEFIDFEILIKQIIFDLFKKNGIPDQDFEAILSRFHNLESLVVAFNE

[2] = target: T1, Zip2(499-704);Spo16; assay: ITC
[3] = target: T1, Zip2(499-704);Spo16; assay: EMSA; remark: listed apart in the source

B1: 40-bp dsDNA (dsDNA)
DNA 1: CCTTTCGAAGACTCATCACGGAGAGCAGACATCATCTGGC
DNA 2: GCCAGATGATGTCTGCTCTCCGTGATGAGTCTTCGAAAGG
B1 was tested, and the Kd [1] was 14 µM.

B2: Holliday Junction (HJ) (structured_DNA)
DNA 1: B1 DNA 1
DNA 2: ATATATGATTCTAATAAGATCGTGATGAGTCTTCGAAAGG
DNA 3: GCCAGATGATGTCTGCTCTCGTCGTAATGTAAGTGTATGC
DNA 4: GCATACACTTACATTACGACATCTTATTAGAATCATATAT
B2 gave a Kd [2] of roughly 1 µM and a Kd [3] of 5 µM.

B3: 5'-overhang DNA (mixed)
DNA 1: B1 DNA 1
DNA 2: GCCAGATGATGTCTGCTCTC
In the case of B3, the Kd [1] is reported as 9 µM.

B4: 3'-overhang DNA (mixed)
DNA 1: B1 DNA 1
DNA 2: CGTGATGAGTCTTCGAAAGG
Binder B4 has a Kd [1] of 17 µM.

From PMC6411835
